Drawing on PMC2853123, this text covers binding signal, binding result and Kd for 12 molecules.

Read-outs that look alike come from different tables or passages of the source.

Assay in all cases: EMSA
On the technique in general: In EMSA bound probe runs differently from free probe, usually more slowly.

The target in data set [1] is T1, MBNL1 (GST-MBNL1 1-260) (UniProt Q9NR56 1-260).
T1 sequence: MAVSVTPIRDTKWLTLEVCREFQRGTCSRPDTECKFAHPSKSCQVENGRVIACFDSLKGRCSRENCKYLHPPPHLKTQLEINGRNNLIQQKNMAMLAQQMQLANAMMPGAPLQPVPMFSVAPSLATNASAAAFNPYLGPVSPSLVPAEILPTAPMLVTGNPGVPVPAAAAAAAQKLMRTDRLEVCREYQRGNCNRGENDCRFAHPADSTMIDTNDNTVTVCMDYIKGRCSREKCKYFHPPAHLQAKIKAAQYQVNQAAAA

Data set [2] addresses T1, MBNL1 (GST-MBNL1 1-260). The source holds these as a separate data set.
Data set [3] has as its target T1, MBNL1 (GST-MBNL1 1-260). This is another data set of the same source.
Data set [4] addresses T1, MBNL1 (GST-MBNL1 1-260). The source holds these as a separate data set.
Data set [5] has as its target T1, MBNL1 (GST-MBNL1 1-260). The source holds these as a separate data set.

B1: H01 CA1-2 (ssRNA)
RNA: GGGAAUGGAUCCACAUCUACGAAUUCCCUCAUUUCAUAUUGCGCUGCAAUUCCUGUUCAAGACUCGAUACGUGACGAACCU
Regarding B1, in the data set with MBNL1 (GST-MBNL1 1-260) [1], the binding signal is 12 fold lower affinity than H01. Regarding CUGCUUCUGCUUCUGCUUCUGCUUCUGCUUCUGCUU (ssRNA) [(CUGCUU)6 (SELEX motif 1)], in the data set with MBNL1 (GST-MBNL1 1-260) [2], the binding result is reported as “binds”. The molecule GCGGCGGGCAGCUGUGCUGGAGAGCAGAUGCUUCACCAAU (ssRNA) [INSR] showed a Kd in the data set with MBNL1 (GST-MBNL1 1-260) [3] of 120 nM. On to UGUUCCUCGCUUUUCGCCUCCGCUUCCGCCGC (ssRNA) [B07 32mer], for which the equilibrium dissociation constant (Kd) with MBNL1 (GST-MBNL1 1-260) [3] is 0.66 nM. The molecule GCCGAGGAGGUGGUGUGAUUGCUUUAGCGCCGUCAUUUUC (ssRNA) [GRIN1] displayed a Kd with MBNL1 (GST-MBNL1 1-260) [3] of 280 nM.

The molecule CCUGUCUCGCUUUUCCCCUCCGCUGCGGCCAC (ssRNA) [TNNT2 32mer] displayed a dissociation constant Kd with MBNL1 (GST-MBNL1 1-260) [3] of 20 nM. In the data set with MBNL1 (GST-MBNL1 1-260) [3], CCUUUAUUGUGCAUGCUUAGUCUUGUUAUUCGUUGUAUAU (ssRNA) [MBNL1 site #2] displayed a Kd of 45 nM. CCUGCUUCGCUUCUGCAUUGUUCGGCCGGUUG (ssRNA) [A04 32mer] registered a Kd with MBNL1 (GST-MBNL1 1-260) [3] of 180 nM.

B2: F06 UCCA 81mer (ssRNA)
RNA: GGGAAUGGAUCCACAUCUACGAAUUCCCGAUCCUCCAUAUGCCAUCCGCUGCAGUCACAAGACUCGAUACGUGACGAACCU
Consider B2, for which the binding signal in the data set with MBNL1 (GST-MBNL1 1-260) [4] is 140 fold lower affinity than F06. In the case of UGCCACUGCUGCUGCUGCGCUUCCAGUCAGGGUGGGCCGC (ssRNA) [ATP2A1], binding with MBNL1 (GST-MBNL1 1-260) [3] was put at a Kd of 15 nM. For CCGAUCCCGCUUAUGCCAUCCGCUGCAGUCAC (ssRNA) [F06 32mer], the binding result with MBNL1 (GST-MBNL1 1-260) [5] was “binds”.

B3: TNNT2 81mer template (ssRNA)
RNA: GGGAAUGGAUCCACAUCUACGAAUUCCCUGUCUCGCUUUUCCCCUCCGCUGCGGCCACAAGACUCGAUACGUGACGAACCU
Molecule B3 registered a Kd with MBNL1 (GST-MBNL1 1-260) [3] of 30 nM.

In general, Kd refers to a measure of binding affinity in units of concentration. The low end stands for higher affinity, the high end for lower affinity.
